Assay results reported in the supplement of paper PMC9732359.
± gives the uncertainty stated by the source.

Assay: protein stability index of a GFP-peptide fusion (yeast GPS) (PSI 1-4); higher = more stable; sorted into four equal gates, so the index is relative within each strain
In short: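 Tiled yeast protein peptides of 17 residues were each joined downstream of GFP, on plasmids that also express Cherry. The pooled library was maintained in yeast, and mid-log cultures in leucine-free medium were sorted into four equal gates on the GFP/Cherry ratio. Plasmids from every gate were amplified by PCR and sequenced on Illumina, with barcodes linking reads to strains. The protein stability index of a peptide is its gate-number-weighted read frequency summed over the gates.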

Row | Sequence | protein stability index (doa10∆) | protein stability index (pdr5∆) | protein stability index (san1∆) | protein stability index (ubr1∆)
1 | EIESIDKLPQFVDENTF [RPN1] | 3.08 ± 0.13 | 3.4 ± 0.22 | 3.09 ± 0.085 | 3.32 ± 0.1
2 | IDSFFLYVLPSFNIPRL [YMR129W/POM152] | 1.77 ± 0.05 | 1.57 ± 0.038 | 1.64 ± 0.093 | 1.26 ± 0.031
3 | ISTACPRLDDVVVDTVE [SMC4] | 3.51 ± 0.071 | 3.43 ± 0.094 | 3.3 ± 0.058 | 3.46 ± 0.093
4 | YCDKNFRENMSKEETVD [PRE3] | 3.02 ± 0.076 | 3.09 ± 0.073 | 3.04 ± 0.066 | 2.92 ± 0.049
5 | SGNTNGAGSAFGFSSSG [YOR098C/NUP1] | 3.25 ± 0.071 | 3.13 ± 0.064 | 3.07 ± 0.064 | 3.02 ± 0.087
6 | ARSIDVEKGVNPTKSKE [ECM29] | 3.32 ± 0.26 | 3.51 ± 0.24 |  | 3.2 ± 0.29
7 | YVNDVAIYNNPTRIRTK [RRI2] | 1.81 ± 0.052 | 2.54 ± 0.032 | 2.19 ± 0.058 | 2.4 ± 0.04
8 | PDILATDLIREKTMMTF [YCS4] | 2.28 ± 0.078 | 3.08 ± 0.081 | 2.86 ± 0.082 | 2.62 ± 0.056
9 | NLMGNRNNHNSNTSTSK [SNF12] | 3 ± 0.073 | 3.17 ± 0.096 | 2.92 ± 0.12 | 3.07 ± 0.054
10 | TSVQEKELMLQSKKLIE [YIL149C/MLP2] | 2.65 ± 0.089 | 2.94 ± 0.096 | 2.84 ± 0.084 | 2.91 ± 0.063
11 | HQGTPLGSHSSSQKDGN [REC8] | 3.21 ± 0.094 | 3.29 ± 0.093 | 2.88 ± 0.13 | 3.35 ± 0.089
12 | DLNHVTEELQTQYATSQ [SMC2] | 3.11 ± 0.19 | 3.17 ± 0.12 | 3.16 ± 0.1 | 3.44 ± 0.2
13 | NISGEFFRNKLKYHDFL [RPL16B] | 2.35 ± 0.063 | 2.18 ± 0.068 | 2.22 ± 0.067 | 1.79 ± 0.044
14 | VTRTHGNSGVVRATFRN [RPL33A] | 2.6 ± 0.075 | 2.82 ± 0.088 | 2.56 ± 0.092 | 2.86 ± 0.073
15 | NPNSTAITADLGSSEAE [YGL172W/NUP49] | 2.56 ± 0.24 | 2.4 ± 0.14 | 2.86 ± 0.22 | 2.76 ± 0.12
16 | RLTKQAFDWVLSNIEAQ [RPO21] | 3.2 ± 0.12 | 2.93 ± 0.12 | 3.19 ± 0.091 | 2.8 ± 0.088
17 | IPATIFDKVIYHLHPTF [TAF14] | 2.61 ± 0.066 | 2.8 ± 0.068 | 2.55 ± 0.062 | 2.78 ± 0.057
18 | QFNATINPESREIVMPA [ITC1] | 1.87 ± 0.15 | 1.86 ± 0.17 | 1.7 ± 0.13 | 1.14 ± 0.19
19 | LEKKGFSEVYEYNRLKV [LIN1] | 3.34 ± 0.16 | 3.18 ± 0.25 | 3.28 ± 0.1 | 3.22 ± 0.12
20 | PVIGVFQKFLTGHPKGA [FAS2] | 3.34 ± 0.19 | 2.79 ± 0.16 | 2.57 ± 0.2 | 3.52 ± 0.24
21 | EQVLSAAATFPIAQPAT [RPL13A] | 2.66 ± 0.059 | 2.24 ± 0.057 | 1.74 ± 0.084 | 2.54 ± 0.043
22 | VLSINPDMYERKVENIR [MED7] | 2.81 ± 0.08 | 3.03 ± 0.086 | 2.79 ± 0.052 | 2.79 ± 0.062
23 | LINEILLKSNDPLLSLY [RGR1] | 2.04 ± 0.046 | 2.15 ± 0.043 | 1.87 ± 0.077 | 2.13 ± 0.035
24 | PVQIVKRITQITIEPGV [RPS20] | 1.74 ± 0.15 | 1.79 ± 0.25 | 1.35 ± 0.21 | 1.65 ± 0.12
25 | NDIDDLDMELAELDPSL [SEC65] | 3.34 ± 0.15 | 3.23 ± 0.089 | 3.08 ± 0.077 | 3.03 ± 0.073
26 | WKYNNFLQKFEIAFHLT [YML103C/NUP188] | 2.36 ± 0.048 | 2.19 ± 0.032 | 2.01 ± 0.052 | 2.36 ± 0.027

Row | Sequence | protein stability index (doa10∆) | protein stability index (pdr5∆) | protein stability index (san1∆) | protein stability index (ubr1∆)
27 | HVDSLIEDFVDGIANSK [SRB7] | 3.06 ± 0.1 | 3.3 ± 0.077 | 3.04 ± 0.059 | 3.08 ± 0.057
28 | YKLTNDEEGIFSRFVDQ [YCG1] | 2.94 ± 0.12 | 2.83 ± 0.13 | 3 ± 0.085 | 2.94 ± 0.057
29 | LLQGGAKVVVTTSRFSK [FAS2] | 2.72 ± 0.077 | 2.43 ± 0.068 | 2.72 ± 0.056 | 2.78 ± 0.047
30 | IQIMANIDQEGSKQADR [PGD1] | 3.2 ± 0.052 | 3.11 ± 0.064 | 3.08 ± 0.054 | 3.08 ± 0.04
31 | SLNEKNALHTERLHELK [SMC1] | 3.36 ± 0.061 | 3.11 ± 0.065 | 2.89 ± 0.067 | 2.81 ± 0.054
32 | HNMLNLLIHRKGLTYLH [PRP8] | 1.33 ± 0.08 | 1.45 ± 0.038 | 1.6 ± 0.1 | 1.66 ± 0.049
33 | LRLGRGINPNTFRIFHN [YDL088C/ASM4] | 2.39 ± 0.062 | 1.88 ± 0.071 | 1.86 ± 0.11 | 1.65 ± 0.038
34 | LQWHAMIELICSSATVP [AAR2] | 1.55 ± 0.084 | 1.69 ± 0.073 | 1.59 ± 0.11 | 1.75 ± 0.057
35 | ILSQQFDKIIKIREDHI [SRB8] | 2.62 ± 0.066 | 3.05 ± 0.07 | 3.04 ± 0.052 | 2.84 ± 0.054
36 | AGKSLVSKSEPKFFLGE [QCR2] | 3.41 ± 0.09 | 3.31 ± 0.067 | 3.08 ± 0.054 | 3.32 ± 0.047
37 | SFYDAIFFNIPLVAHLG [YJL039C/NUP192] | 1.73 ± 0.037 | 1.23 ± 0.042 | 2.02 ± 0.027 | 1.22 ± 0.034
38 | GCLNFVDENDEVLLAGF [RPS23A] | 1.3 ± 0.083 | 1.53 ± 0.074 | 1.5 ± 0.095 | 1.27 ± 0.068
39 | TVSRAYGGSRCANCVKE [RPL34A] | 2.4 ± 0.071 | 2.96 ± 0.068 | 2.43 ± 0.1 | 2.19 ± 0.043
40 | YQKEYETAERNIIQAKR [RPL7A] | 2.81 ± 0.25 | 2.75 ± 0.14 | 1.94 ± 0.16 | 
41 | DNFDYFNQRDGEHEKSN [MED1] | 2.86 ± 0.098 | 3 ± 0.2 | 3.19 ± 0.15 | 3.56 ± 0.14
42 | DKKHFNNKNKRVTGAGG [RPC53] | 3.15 ± 0.24 | 2.53 ± 0.17 | 3.16 ± 0.27 | 3.31 ± 0.075
43 | TLGVVGKSEKLSLLLVE [SKI6] | 2.8 ± 0.051 | 3.04 ± 0.048 | 3.11 ± 0.035 | 2.96 ± 0.049
44 | AGMTTIVRDLDRPGSKF [RPL3] | 2.39 ± 0.11 | 3.24 ± 0.18 | 2.95 ± 0.08 | 3.15 ± 0.11
45 | TEDVRLAPELNQAIWKR [RPL31B] | 2.67 ± 0.069 | 2.99 ± 0.083 | 3.03 ± 0.062 | 3.08 ± 0.05
46 | NDPNAAVNMTQNIMTLP [MED6] | 2.97 ± 0.14 | 2.95 ± 0.089 | 2.71 ± 0.08 | 3.11 ± 0.059
47 | SPTPIQRITIPNVCNMK [PRP28] | 1.99 ± 0.074 | 2.16 ± 0.063 | 2.04 ± 0.068 | 2.09 ± 0.057
48 | IPAGIYWYWWKNGNEYN [QCR8] | 2.35 ± 0.076 | 1.69 ± 0.053 | 1.77 ± 0.13 | 2.04 ± 0.089
49 | LLDVKLAIDNMYILGMC [YCG1] | 1.56 ± 0.086 | 1.51 ± 0.051 | 1.86 ± 0.071 | 2.12 ± 0.05
50 | NASGNKRSGVIETVDDK [ITC1] | 2.55 ± 0.09 | 2.58 ± 0.097 | 2.27 ± 0.12 | 2.45 ± 0.052
51 | ETQFKLSRPYKALKTNI [CDC53] | 2.19 ± 0.045 | 2.39 ± 0.051 | 2.23 ± 0.05 | 2.45 ± 0.052
52 | KAAFIRVNGSEFVHKYL [RPT3] | 2.22 ± 0.062 | 2.46 ± 0.073 | 2.15 ± 0.087 | 2.77 ± 0.08
